Source: patent US10407503B2, “Fully human antibodies and fragments recognizing human c-Met” (THE REGENTS OF THE UNIVERSITY OF CALIFORNIA, priority 2012, dated 2019)
“Also recorded” adds a separate entry of the source.

B1: F1 ScFv antibody (phage-displayed) (scFv)
scFv: QVQLVQSGAEVKKPGASVKVSCKASGYTFTDYYMHWVRQAPGEGLEWMGWMNPNSGGTNYAQKFQGRVTMTRDTSISTAYMELSRLRSDDTAVYYCARSHYWDSWSPGTLVTVSSGGGGGSGGGGSGGGGSSALTQPASVSGSPGQSITISCTGTSGDVGGYNYVSWYQQHPGKAPKLMIYDVSNRPSGVSNRFSGSKSGNTASLTISGLQAEDEADYYCTSYAGSRNLVFGGGTKLTVLG
notes: The fusion to the phage coat protein is not described
B2: H5 cys-diabody (other)
chain: QVQLQESGGGLVQPGGSLRLSCAASGFTFSNYAMSWVRQAPGKGLEWVSAISGSGGSTYYADSVKGRFTISRDNSKNTLYLQMNSLRAEDTAVYYCAKDRFRAAAYWGQGTLVTVSSGGGGGSQSVLTQPPSVSAAPGQKVTISCTGSSSNIGAGYDVHWYQQLPGTAPKLLIYGNSNRPSGVPDRFSGSKSGTSASLAISGLQSEDEADYYCAAWDDILNGEIFGGGTKVTVLGAAAEQKLISEEDLNGAAHHHHHHC
notes: Expressed in E. coli and purified through the His tag; also called H5 diabody
B3: H5 cys-diabody: human anti-c-Met cys-diabody comprising SEQ ID NO:24 (protein)
chain: B2 chain
modifications: H5 cys-diabody sequence
B4: C2 cys-diabody (other)
chain: QVQLQESGGGLVQPGGSLRLSCAASGFTFSSYAMSWVRQAPGKGLEWVSAISGSGGSTYYADSVKGRFTISRDNSKNTLYLQMNSLRAEDTAVYYCASQHVGEQSRYFDYWGQGTLVTVSSGGGGGSDIVMTQSPSSLSASIGDRVTITCRASHSISSYVNWYQKKPGKAPNLLIYAASYLPRGVPSRFSGSGLGTDFTLTISNLQPEDFATYYCQESYSTPYSFGQGTKVDIKRAAAEQKLISEEDLNGAAHHHHHHC
notes: Expressed in E. coli and purified through the His tag; also called C2 diabody
B5: C2 cys-diabody: human anti-c-Met cys-diabody comprising SEQ ID NO:18 (protein)
chain: B4 chain
modifications: C2 cys-diabody sequence

Tests used:
[1] = target: T1, c-MET on the surface of Hcc827 or Hcc827-GR6 cells (human, UniProt P08581 25-1390); assay: phage flow cytometry on Hcc827 cells, bound phage detected with FITC anti-M13 antibody
T1 construct: whole, on cells; The cells express the receptor endogenously, and MET is amplified in Hcc827-GR6; also called cell surface MET
T1 sequence (P08581 25-1390): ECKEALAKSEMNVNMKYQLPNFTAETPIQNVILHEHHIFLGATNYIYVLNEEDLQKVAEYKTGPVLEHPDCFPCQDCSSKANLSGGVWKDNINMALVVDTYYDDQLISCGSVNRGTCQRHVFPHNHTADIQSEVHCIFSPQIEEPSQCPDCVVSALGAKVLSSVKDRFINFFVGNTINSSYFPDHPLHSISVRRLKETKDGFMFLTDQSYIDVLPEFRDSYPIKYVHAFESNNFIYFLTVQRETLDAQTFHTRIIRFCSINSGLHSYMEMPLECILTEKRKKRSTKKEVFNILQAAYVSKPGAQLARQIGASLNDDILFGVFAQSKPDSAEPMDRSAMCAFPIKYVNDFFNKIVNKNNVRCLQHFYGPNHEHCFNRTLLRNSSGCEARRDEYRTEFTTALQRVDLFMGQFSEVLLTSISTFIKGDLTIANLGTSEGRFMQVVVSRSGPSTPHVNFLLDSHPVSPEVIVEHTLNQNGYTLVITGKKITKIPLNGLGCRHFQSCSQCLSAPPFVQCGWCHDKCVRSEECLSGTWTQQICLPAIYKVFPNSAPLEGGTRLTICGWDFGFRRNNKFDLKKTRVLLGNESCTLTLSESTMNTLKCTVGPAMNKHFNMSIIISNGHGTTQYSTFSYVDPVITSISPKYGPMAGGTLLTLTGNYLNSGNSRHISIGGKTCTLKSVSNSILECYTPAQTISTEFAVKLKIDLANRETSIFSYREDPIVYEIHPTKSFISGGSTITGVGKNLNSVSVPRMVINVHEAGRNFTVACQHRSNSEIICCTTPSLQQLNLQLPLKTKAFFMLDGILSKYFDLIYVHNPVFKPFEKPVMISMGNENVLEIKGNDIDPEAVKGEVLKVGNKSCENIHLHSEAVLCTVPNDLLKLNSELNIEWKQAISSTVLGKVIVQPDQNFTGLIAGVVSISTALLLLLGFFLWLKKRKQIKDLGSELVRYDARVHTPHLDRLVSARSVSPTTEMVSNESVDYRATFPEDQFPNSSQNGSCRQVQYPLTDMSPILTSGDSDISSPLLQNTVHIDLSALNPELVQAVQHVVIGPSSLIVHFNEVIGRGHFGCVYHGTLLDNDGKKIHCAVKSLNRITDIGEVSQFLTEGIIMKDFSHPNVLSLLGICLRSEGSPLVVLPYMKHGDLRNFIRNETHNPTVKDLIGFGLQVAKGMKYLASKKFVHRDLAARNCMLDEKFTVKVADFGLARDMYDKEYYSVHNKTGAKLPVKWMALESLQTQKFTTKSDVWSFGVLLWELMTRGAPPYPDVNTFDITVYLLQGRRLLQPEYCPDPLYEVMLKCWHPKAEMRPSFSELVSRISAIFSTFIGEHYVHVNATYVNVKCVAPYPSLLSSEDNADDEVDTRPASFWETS
Procedure: For phage antibodies, flow cytometry was used to confirm their binding to c-MET expressing cells. Bacteria culture containing phage was concentrated 30 times into PBS according to published method (Antibody Engineering Methods and Protocols, Benny K. C. Lo). $2 \sim 5 \times 10^5$ c-MET positive Hcc827 or Hcc827-GR6 cells (Engelman et. al, Science, 2007) were incubated with 100 ul concentrated phage and 30 ul 4% milk-PBS on ice for 1 hour. Cells were then washed using flow buffer (PBS, 1% FBS, 2 mM EDTA), and the binding phage antibodies were detected by FITC conjugated anti-M13 monoclonal antibody (Santa Cruz Biotechnology, Cat# sc-53005 Fitc).

[2] = target: T1, c-MET on the surface of Hcc827 or …; assay: flow cytometry binding curve on cells (the sheet does not name them; paragraph 217: Hcc827 GR6 cell line)
Procedure: (§1) The affinities of the cys-diabodies were evaluated by flow cytometry. Serial diluted cys-diabodies were incubated with Hcc827-GR6 cells at 4 degrees for 2 hours. The cys-diabodies were detected with 1/100 mouse anti-c-Myc antibody (Sigma, Cat# M4439) and stained with 1/100 PE or FITC conjugated goat anti mouse IgG polyclonal antibody (Jackson ImmunoResearch) in flow buffer.
(§2) The affinity of these 3 cys-diabodies were evaluated by flow cytometry. The concentrations of the purified proteins were determined by their A280, measured with Nanodrop 2000 (Thermal Scientific), and their calculated extinction coefficient (ProtParam tool, expasy.org). The binding curve was fitted with one-site total binding model by GraphPad Prism.

[3] = target: T2, mouse MET-hIgG Fc fusion protein (Sino Biological Inc.) (mouse; human, UniProt P16056 25-931, limits assumed); assay: capture ELISA: cys-diabody coated on the plate, mouse MET-hIgG Fc applied, detected with alkaline phosphatase anti-human IgG
T2 construct: Bought protein; also called mouse MET protein; MET-hFc
T2 sequence (P16056 25-931 limits assumed): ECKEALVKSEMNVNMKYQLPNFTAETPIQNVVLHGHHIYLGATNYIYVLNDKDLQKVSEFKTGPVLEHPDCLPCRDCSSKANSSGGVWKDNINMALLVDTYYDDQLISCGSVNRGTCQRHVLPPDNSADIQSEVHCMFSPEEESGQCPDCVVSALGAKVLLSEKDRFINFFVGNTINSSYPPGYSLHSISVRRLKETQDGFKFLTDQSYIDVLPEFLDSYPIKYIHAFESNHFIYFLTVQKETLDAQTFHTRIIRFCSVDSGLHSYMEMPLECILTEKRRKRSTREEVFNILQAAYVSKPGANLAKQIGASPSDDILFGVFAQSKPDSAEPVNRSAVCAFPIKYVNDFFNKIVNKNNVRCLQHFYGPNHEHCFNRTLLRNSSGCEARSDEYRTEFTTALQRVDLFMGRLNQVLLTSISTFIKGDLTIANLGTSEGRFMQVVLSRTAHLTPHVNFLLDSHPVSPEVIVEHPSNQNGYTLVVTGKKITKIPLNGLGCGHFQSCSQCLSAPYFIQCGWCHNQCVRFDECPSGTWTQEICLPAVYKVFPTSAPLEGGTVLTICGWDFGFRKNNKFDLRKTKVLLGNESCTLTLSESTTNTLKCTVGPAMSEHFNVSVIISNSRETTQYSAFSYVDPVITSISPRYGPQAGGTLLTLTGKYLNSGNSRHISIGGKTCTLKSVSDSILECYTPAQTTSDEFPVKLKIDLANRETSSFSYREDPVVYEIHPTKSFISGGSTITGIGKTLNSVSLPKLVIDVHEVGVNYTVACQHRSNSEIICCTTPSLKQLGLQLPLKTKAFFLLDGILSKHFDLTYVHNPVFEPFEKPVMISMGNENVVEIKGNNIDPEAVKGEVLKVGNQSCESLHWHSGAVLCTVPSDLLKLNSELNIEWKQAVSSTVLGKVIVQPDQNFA
Procedure: 1 µg of purified anti-MET cys-diabodies in 100 µL PBS were used to coat each well at 4 degree overnight. Anti-EpCAM cys-diabody or 2% milk-PBS were used for negative controls. The overnight coated plate was then washed with PBS and blocked with 2% milk-PBS at 37 degree for 2 hours. The plate was then washed with PBS before adding 0.1 µg human or mouse MET-hIgG Fc fusion protein (purchased from Sino Biological Inc.) in 100 µL, 2% milk-PBS to each well. The plate was incubated at room temperature for 1.5 hours, and then washed with PBS-Tween and PBS. The captured human or mouse MET-hIgG Fc were detected with alkaline phosphatase conjugated goat anti-human IgG.
C2, H2 and H5 cys-diabodies were used to coat 96-well ELISA plate to capture human or mouse MET-hIgG Fc fusion protein. The human IgG Fc on the fusion protein was detected with alkaline phosphatase conjugated goat anti-human IgG. The results in FIG. 4 show H2 cys-diabody can bind to both human and mouse MET protein, while C2 and H5 cys-diabodies show minimal cross reactivity to the mouse MET. Anti-EpCAM H9 cys-diabody or 2% milk-PBS were used as negative controls.

[4] = target: T1, c-MET on the surface of Hcc827 or …; assay: flow cytometry on Hcc827-GR6 cells, one-site total binding fit
Procedure: as §1, §2

mouse MET protein = target: T3, mouse MET protein (Mus musculus, UniProt P16056); assay: Anti-MET ELISA, mouse MET-hIgG Fc captured by coated cys-diabodies (cross reactivity); type: binding; conditions: coated cys-diabody captures mouse MET-hFc
T3 construct: purchased Sino Biological Inc
T3 sequence (P16056 with tags, fused parts or gaps limits assumed): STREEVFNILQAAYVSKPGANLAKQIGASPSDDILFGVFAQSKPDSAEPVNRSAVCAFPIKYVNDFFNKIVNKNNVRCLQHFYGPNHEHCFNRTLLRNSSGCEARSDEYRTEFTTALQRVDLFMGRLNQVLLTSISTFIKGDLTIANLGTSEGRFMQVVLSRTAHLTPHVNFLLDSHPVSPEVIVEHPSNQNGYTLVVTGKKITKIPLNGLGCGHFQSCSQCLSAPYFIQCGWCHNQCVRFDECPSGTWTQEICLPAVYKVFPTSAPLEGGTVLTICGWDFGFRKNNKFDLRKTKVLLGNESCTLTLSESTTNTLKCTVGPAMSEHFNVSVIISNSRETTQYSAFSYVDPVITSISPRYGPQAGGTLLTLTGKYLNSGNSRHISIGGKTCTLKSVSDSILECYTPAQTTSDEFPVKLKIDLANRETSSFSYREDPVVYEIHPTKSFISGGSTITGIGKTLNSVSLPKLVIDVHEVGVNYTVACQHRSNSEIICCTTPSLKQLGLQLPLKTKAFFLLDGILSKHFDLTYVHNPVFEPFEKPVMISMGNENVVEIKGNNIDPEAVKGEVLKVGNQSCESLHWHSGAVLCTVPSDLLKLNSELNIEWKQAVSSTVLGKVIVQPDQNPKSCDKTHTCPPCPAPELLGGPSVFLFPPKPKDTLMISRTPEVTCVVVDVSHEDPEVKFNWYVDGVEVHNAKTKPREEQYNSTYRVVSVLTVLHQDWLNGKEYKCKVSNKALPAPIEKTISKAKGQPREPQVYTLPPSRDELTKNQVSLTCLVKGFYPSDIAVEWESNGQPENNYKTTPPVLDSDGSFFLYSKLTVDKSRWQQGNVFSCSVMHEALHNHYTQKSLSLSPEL
T3 sequence (P16056 25-306 limits assumed): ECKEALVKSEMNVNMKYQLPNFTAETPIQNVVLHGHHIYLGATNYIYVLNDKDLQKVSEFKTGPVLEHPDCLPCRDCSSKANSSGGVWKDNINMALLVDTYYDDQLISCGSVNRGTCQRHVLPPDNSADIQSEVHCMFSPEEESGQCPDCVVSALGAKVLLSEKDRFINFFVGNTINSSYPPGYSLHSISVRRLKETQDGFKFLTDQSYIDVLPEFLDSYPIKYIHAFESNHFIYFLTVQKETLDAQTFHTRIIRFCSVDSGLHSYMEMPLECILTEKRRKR
Procedure: (§3) Three rounds of selections on human MET protein were performed which were successfully reformatted and purified 3 cys-diabodies. C2, H2 and H5 cys-diabodies were tested for cross-reactivity to mouse MET protein. Different cys-diabodies were coated to 96-well plate (milk or anti-EpCAM cys-diabody was used as negative control). Either mouse or human MET protein was applied to the coated cys-diabodies. Then the MET-hFc proteins were detected by anti-human Fc antibody.
(§4) 1 μg of purified anti-MET cys-diabodies in […], PBS were used to coat each well at 4 degree overnight. Anti-EpCAM cys-diabody or 2% milk-PBS were used for negative controls. The overnight coated plate was then washed with PBS and blocked with 2% milk-PBS at 37 degree for 2 hours. […] The captured human or mouse MET-hIgG Fc were detected with alkaline phosphatase conjugated goat anti-human IgG.
(§5) C2, H2 and H5 cys-diabodies were used to coat 96-well ELISA plate to capture human or mouse MET-hIgG Fc fusion protein. The human IgG Fc on the fusion protein was detected with alkaline phosphatase conjugated goat anti-human IgG. […]
(§6) Three rounds of selections on human MET protein were performed, and three cys-diabodies were reformatted and purified (the C2, H2 and H5 cys-diabodies). […] Then the MET-hFc proteins were detected by anti-human Fc antibody.

human MET protein = target: T4, human MET protein (Homo sapiens, UniProt P08581); assay: Anti-MET ELISA, human MET-hIgG Fc captured by coated cys-diabodies; type: binding; conditions: coated cys-diabody captures human MET-hFc
T4 construct: purchased Sino Biological Inc
T4 sequence (P08581 with tags, fused parts or gaps limits assumed): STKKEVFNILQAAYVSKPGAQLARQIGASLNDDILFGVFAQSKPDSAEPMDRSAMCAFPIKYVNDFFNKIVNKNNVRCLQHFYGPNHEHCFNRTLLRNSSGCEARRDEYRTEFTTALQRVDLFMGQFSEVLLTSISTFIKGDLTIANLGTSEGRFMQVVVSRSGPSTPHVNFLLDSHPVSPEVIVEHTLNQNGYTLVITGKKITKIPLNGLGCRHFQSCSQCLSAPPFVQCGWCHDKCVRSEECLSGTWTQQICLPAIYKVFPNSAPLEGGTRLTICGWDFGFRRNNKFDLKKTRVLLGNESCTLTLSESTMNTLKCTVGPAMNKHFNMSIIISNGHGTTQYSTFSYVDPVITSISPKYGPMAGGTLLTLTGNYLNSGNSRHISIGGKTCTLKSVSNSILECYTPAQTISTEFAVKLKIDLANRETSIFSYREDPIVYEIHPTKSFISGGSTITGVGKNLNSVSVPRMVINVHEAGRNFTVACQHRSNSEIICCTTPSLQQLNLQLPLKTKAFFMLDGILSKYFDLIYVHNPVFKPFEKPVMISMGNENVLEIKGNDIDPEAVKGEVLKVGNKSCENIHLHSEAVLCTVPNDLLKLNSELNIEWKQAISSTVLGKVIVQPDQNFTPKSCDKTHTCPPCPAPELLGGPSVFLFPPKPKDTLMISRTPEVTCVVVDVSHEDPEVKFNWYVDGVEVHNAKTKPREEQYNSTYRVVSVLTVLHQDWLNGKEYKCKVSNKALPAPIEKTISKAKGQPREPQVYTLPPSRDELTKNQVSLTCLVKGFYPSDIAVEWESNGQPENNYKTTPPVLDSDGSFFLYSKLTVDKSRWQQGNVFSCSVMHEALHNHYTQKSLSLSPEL
T4 sequence (P08581 25-307 limits assumed): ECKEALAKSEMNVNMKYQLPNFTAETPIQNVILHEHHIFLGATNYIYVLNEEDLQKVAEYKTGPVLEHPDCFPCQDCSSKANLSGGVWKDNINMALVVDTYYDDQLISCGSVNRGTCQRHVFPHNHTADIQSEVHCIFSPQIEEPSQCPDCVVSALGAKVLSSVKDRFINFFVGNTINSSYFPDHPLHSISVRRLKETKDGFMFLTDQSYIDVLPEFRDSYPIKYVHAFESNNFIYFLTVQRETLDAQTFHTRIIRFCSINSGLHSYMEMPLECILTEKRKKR
Procedure: as §3, §4, §5, §6

Hcc827-GR6 cells = assay: MTS cell growth assay, gefitinib resistant Hcc827-GR6 cells; type: cell-based; conditions: 3 days, with or without 1 μM gefitinib, MET amplified
Procedure: (§7) These diabodies also show therapeutic effects on resistant cells with MET amplification. […] The diabodies were also applied to the resistant cell line GR6 with or without 1 μM gefitinib.
(§8) Cell growth and inhibition were evaluated by MTS assay. The MTS assay was based on the ability of live cells to convert 3-(4,5-dimethylthiazol-2-yl)-5-(3-carboxymethoxyphenyl)-2-(4-sulfophenyl)-2H-tetrazolium (MTS) to formazan. The quantity of formazan product was measured by 500 nm absorbance, which is proportional to the number of living cells in culture. The assay was performed with the CellTiter96 AQueous Assay Kit from Promega (Cat# G5421), according to the recommended protocol. 2×10^4 cells were seeded in each well of the 96-well plates and treated with different combination of antibodies and drugs for 3 days before the MTS assay. Each combination of cell line and drug and antibody treatment was set up in at least 4 replicate wells. And the results were normalized to the cells treated with media only.
(§9) Different cell lines were treated with C2, H2 or H5 cys-diabodies at different concentrations with or without 1 micromolar of gefitinib for 3 days, and then the cell growth was evaluated with MTS assay. […] All three cys-diabodies show no effects on the parental Hcc827 cells without gefitinib.
These diabodies also show therapeutic effects on resistant cells with MET amplification. The parental cell line, Hcc827, was treated with the diabodies for 3 days, and the diabodies show no effects on the growth of the parental line at all.

Hcc827 cells = assay: MTS cell growth assay, parental Hcc827 cells; type: cell-based; conditions: 3 days, with 1 micromolar gefitinib
Procedure: as §7, §8, §9
These diabodies also show therapeutic effects on resistant cells with MET amplification. […]

Molecule | Kd [2] | binding result [3] | Kd [4] | cross reactivity to mouse MET protein (mouse MET protein) | binding to human MET protein (human MET protein) | other results
B1 |  |  |  |  |  | binding result [1]: binds
B2 | 4.7 nM | no binding | 4.6 nM |  |  | 
B3 |  |  |  | bind to only human MET; also recorded: minimal cross reactivity to the mouse MET | bind to only human MET | inhibition of growth of resistant Hcc827-GR6 cells (Hcc827-GR6 cells): inhibition of the resistant cells at higher concentration; inhibition of growth of resistant Hcc827-GR6 cells (Hcc827-GR6 cells; listed as H5 diabody): some inhibition at high concentrations; also recorded: inhibition only at high concentrations
B4 | 2 nM | no binding | 2.4 nM |  |  | 
B5 |  |  |  | bind to only human MET; also recorded: minimal cross reactivity to the mouse MET | bind to only human MET | effect on growth of sensitive Hcc827 cells with gefitinib (Hcc827 cells): protects the sensitive Hcc827 cells from gefitinib inhibition; inhibition of growth of resistant Hcc827-GR6 cells (Hcc827-GR6 cells; listed as C2 diabody): some inhibition at high concentrations; also recorded: inhibition only at high concentrations
